B1: Panx peptide residues 455–480 (Panx1 + 2) (peptide)
peptide: TLYKNAATQTERRTATRDAGTQVRLE
B2: Nxf2[541–841], recombinant (domain or fragment)
chain: LPSEYVRAVKEVFPQLTTLDGVDLQTNPGQSLQKNFLCDTGAYELVGAFLENYLREFENDEFRHNLYKYYSENSIFTLTCNYNVVQNHQTPKILQRLSKYNRHARNLRNKDYSKASDGVFFGCTYIVEILLQLPRVTHDFHSLQTDVMHYNGKGAVIYVAGLLRDEPPSTRNGHGSKTDIGGVLLGFSRQFVVTFDEANLGLGKRARRLKIANERLHITNPSKTAIRNAFSVNFPDPSERQAEEDSLDVKDHKLLLFQEVTGLISTWVTSIVEEADWDFERALKLFIQKNADHEIPDLAFA
B3: His6-Ctp, recombinant, coexpressed in SFiNX complexes (natural protein)
chain: MSDRKAVIKNADMSEEMQQDAVDCATQALEKYNIEKDIAAYIKKEFDKKYNPTWHCIVGRNFGSYVTHETRHFIYFYLGQVAILLFKSG
B4: Panx peptide residues 455–466 (Panx1) (peptide)
peptide: TLYKNAATQTER
B5: Panx[263–541], recombinant, coexpressed in SFiNX[wild type] (domain or fragment)
chain: ASSQNESSKERKLRDTELDYVPVRPDEHFIRPIKFSNLIERRPPQVEFNTVNLSKADKRSLAVARAELVLEQIQQKANKEEPPEFHMVDTICKLPVNESFRNQDCFENPSPICNNMNVVYKFNSTPGTRIDLSKWGLETVPEATKRLLRLLGIDVARLKELQSTVKPSQRILKLKKEQLEQGLAPTEEQETATLYKNAATQTERRTATRDAGTQVRLESKLNGAFWQNPHFDPMNLTQHQSNVMLALQEIYQTLPSATMAVKLSRALAPALAIIKGRQP
B6: Panx peptide residues 467–480 (Panx2) (peptide)
peptide: RTATRDAGTQVRLE

How the values were obtained:
[1] = target: Drosophila melanogaster Ctp (residues 1–89), untagged, coexpressed with Panx peptides (Drosophila melanogaster, UniProt Q24117 1-89); assay: SEC-MALS
Nxt1, recombinant = Nxt1, recombinant (Drosophila melanogaster, UniProt Q9V3H8 1-133); assay: SEC-MALS
SEC-MALS = target: the molecule itself; assay: SEC-MALS
[2] = target: Ctp expressed in isolation with a His6-SUMO tag (for ITC) (Drosophila melanogaster, UniProt Q24117 1-89); assay: ITC
[3] = target: B2; assay: SEC-MALS

Binder: B1
- stoichiometry N [1]: 1 Panx peptide per Ctp homodimer

Binder: B2
- binding result (Nxt1, recombinant): binds

Binder: B3
- stoichiometry N (SEC-MALS): 2

Binder: B4
- stoichiometry N [1]: 2 Panx peptides per Ctp homodimer
- Kd [2]: ~75 nM

Binder: B5
- binding result [3]: binds

Binder: B6
- stoichiometry N [1]: 2 Panx peptides per Ctp homodimer
- Kd [2]: ~140 nM

From PMC7919418 (Genes & Development, 2021)
